Laboratory results taken from publication PMC7544224 (Nucleic Acids Research, 2020).
Residue numbers refer to the chain shown, from its start.

Experiments:
[1] = target: T1, YefM (antitoxin; in heterohexamer, YoeB2-YefM4);YoeB (toxin; in heterohexamer, YoeB2-YefM4) (Staphylococcus aureus …, UniProt Q2G285;Q2G286 1-83;1-88, |); assay: ITC
T1 sequence 1: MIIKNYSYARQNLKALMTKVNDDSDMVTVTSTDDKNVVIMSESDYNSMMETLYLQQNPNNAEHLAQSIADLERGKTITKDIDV
T1 sequence 2: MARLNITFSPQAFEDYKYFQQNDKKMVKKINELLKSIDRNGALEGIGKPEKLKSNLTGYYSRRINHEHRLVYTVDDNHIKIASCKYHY

SEC-MALS = target: the molecule itself; assay: SEC-MALS
[2] = target: T2, YefM antitoxin without tag (pET22b-yefM), as in the heterohexamer (S. aureus (NCTC8325 strain), UniProt A0A0B4ND47 1-83); assay: SEC-MALS
T2 sequence (looked up): T1 sequence 1

B1: promoter core mutant (ATTGTACA to ATTTTAAA) (dsDNA)
DNA 1: TTATTTTAAAGATATTTTTAAAATTG
DNA 2: CAATTTTAAAAATATCTTTAAAATAA
binding result [1]: no binding

B2: YefM antitoxin, expressed alone (natural protein, S. aureus (NCTC8325 strain), UniProt A0A0B4ND47 1-83, looked up)
chain: T1 sequence 1
stoichiometry N (SEC-MALS): 2

B3: YoeB toxin with N-terminal 6xHis tag (pET28a-yoeB) (natural protein)
chain: T1 sequence 2 with D23N
stoichiometry N [2]: 0.5 YoeB per YefM

B4: promoter flank mutant (ATTGTACA to AGCGTACG) (dsDNA)
DNA 1: TTAGCGTACGGATATGCGTACGCTTG
DNA 2: CAAGCGTACGCATATCCGTACGCTAA
binding result [1]: no binding
